Assay results from PMC7093204 (Nature, 2020).

B1: Rsc8 (natural protein)
chain: MSDTEKDKDVPMVDSHEATEEPPTTSTNTPSFPHLAQEQAKEESATLGAEVAHKKINYEQEAQKLEEKALRFLAKQTHPVIIPSFASWFDISKIHEIEKRSNPDFFNDSSRFKTPKAYKDTRNFIINTYRLSPYEYLTITAVRRNVAMDVASIVKIHAFLEKWGLINYQIDPRTKPSLIGPSFTGHFQVVLDTPQGLKPFLPENVIKQEVEGGDGAEPQVKKEFPVNLTIKKNVYDSAQDFNALQDESRNSRQIHKVYICHTCGNESINVRYHNLRARDTNLCSRCFQEGHFGANFQSSDFIRLENNGNSVKKNWSDQEMLLLLEGIEMYEDQWEKIADHVGGHKRVEDCIEKFLSLPIEDNYIREVVGSTLNGKGGDSRDGSVSGSKLMECVNDAVQTLLQGDDKLGKVSDKSREISEKYIEESQAIIQELVKLTMEKLESKFTKLCDLETQLEMEKLKYVKESEKMLNDRLSLSKQILDLNKSLEELNVSKKLVLISEQVDSGIQLVEKDQEGDDEDGNTATGHGVKRVGKEGEEVGEGDSIAKLQPQVYKPWSL

What was measured:
Rsc8 = target: B1; assay: cryo-EM structure
cryo-EM structure = target: the molecule itself; assay: cryo-EM structure

binding result (Rsc8) | Binder | binding result (cryo-EM structure)
binds | Sfh1 (natural protein) MSHQNQLIPQAYISNFHNRLTNEDDGIPIFTMAQQTRQHKRAKVVNYAEYDNDLFDEFNMNGSNFNNADTHYKDNAVSHENTPALTNGVTMDGSEYNVLENMNGADSIISNNKYDAGSNMVVESLSGLNSNNNASNGPSNKAQAQDIGNAVLPDLQDQHHNPFNILRYPKIRDTFINGKVVSPYRLNTDQETKANANSGEAIMIPITLDIEHMGHTIKDQFLWNYNDDSISPEEFASIYCKDLDMTSATLQTQIANIIKEQLKDLENIAATEIMSDLHVIINLTCNLQDRFFEDNFQWNLNDKSLTPERFATSIVQDLGLTREFIPLISQSLHETILKIKKDWVDGHLIQDHVPNDAAFGYLSGIRLDIDELGSNWCPRVEILTKEEIQKREIEKERNLRRLKRETDRLSRRGRRRLDDLETTMRM | –
binds | Rsc6 (natural protein) MVTQTNPVPVTYPTDAYIPTYLPDDKVSNLADLKKLIEMDSRLDLYLTRRRLDTSINLPTNTKTKDHPPNKEMLRIYVYNTTESSPRSDSGTPADSGKTTWTLRIEGKLLHESANGKHPFSEFLEGVAVDFKRLKPLGMGKKRKRDSSLSLPLNLQQPEYNDQDSTMGDNDNGEDEDSAEAESREEIVDALEWNYDENNVVEFDGIDIKRQGKDNLRCSITIQLRGVDGGKVQYSPNLATLIGMQTGSVNDAVYSIYKYILINNLFVTEQTEAQDGSNDAEDSSNENNNKNGAGDDDGVEGSTPKDKPELGEVKLDSLLQKVLDTNAAHLPLMNVVQTVNKLVSPLPPIILDYTIDLSKDTTYGATTLDVDVSHILHQPQPQPNLQKEEETDAEDTAKLREITKLALQLNSSAQKYQFFHELSLHPRETLTHYLWSSKQNELVLQGDQYFNEDAARTSDIYSNNNNDRSLMGNISLLYSQGRL | –
– | B1 | binds
